Our source for the Kd values is paper PMC5993831 (2018).

The test has as its target PD-L1 (Mus musculus, UniProt Q9EP73).

The term Kd denotes a measure of binding affinity in units of concentration.

PD-L1, sequence (Q9EP73 19-239): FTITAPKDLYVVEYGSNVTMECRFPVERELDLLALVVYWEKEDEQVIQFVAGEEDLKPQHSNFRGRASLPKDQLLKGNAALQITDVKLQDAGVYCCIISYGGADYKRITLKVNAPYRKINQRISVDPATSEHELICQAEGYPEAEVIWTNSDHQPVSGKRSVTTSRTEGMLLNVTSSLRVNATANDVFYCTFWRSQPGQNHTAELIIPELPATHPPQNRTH

B1: PD-L1 trap (trimeric PD-1 ECD fused to CMP1 trimerization domain) 21-150 (protein)
chain: SGWLLEVPNGPWRSLTFYPAWLTVSEGANATFTCSLSNWSEDLMLNWNRLSPSNQTEKQAAFCNGLSQPVQDARFQIIQLPNRHDFHMNILDTRRNDSGIYLCGAISLHPKAKIEESPGAELVVTERILE
modifications: trimeric fusion with mouse CMP1 residues 458-500 via hinge linker, His6 tag
With B1, the equilibrium dissociation constant (Kd) stood at 0.219 nM.
